Source: patent US20250257110A1

Target: TAG72 antigen (tumor associated glycoprotein-72)
Assay: method not stated; scFv affinity toward TAG72 antigen

Work on original humanized CC49 scFv (IDEC) yielded a Kd of 33 nM.
